Data as given in PMC6305486.

Target: FtsQ_(50–276), P06136
Assay: BLI
Conditions: chain shown with the change; GST-e5-FtsB (mutant) in complex with k5-FtsL immobilized; FtsQ analyte 0-60 µM; parent: 0.24 ± 0.01

FtsQ_(50–276), P06136, sequence (P06136 50-276): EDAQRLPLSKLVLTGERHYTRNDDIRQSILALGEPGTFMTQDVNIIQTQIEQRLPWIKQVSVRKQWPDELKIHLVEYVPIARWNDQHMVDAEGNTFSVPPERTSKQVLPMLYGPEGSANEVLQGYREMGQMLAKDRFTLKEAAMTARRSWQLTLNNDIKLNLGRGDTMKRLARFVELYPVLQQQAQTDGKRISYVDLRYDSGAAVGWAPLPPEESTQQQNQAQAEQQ

Kd: 2.4 µM
B1: GST-fused e5-FtsB_(25–103)/k5-FtsL_(64–121) complex (WT), P0A6S5;P0AEN4 E68A (protein)
chain 1: GIHDYTRVNDDVAAQQATNAKLKARNDQLFAEIDDLNGGQEALAERARNELSMTRPGETFYRLVPDASKRAQSAGQNNR
chain 2: TAQREQLVLERDALDIEWRNLILEENALGDHSRVERIATEKLQMQHVDPSQENIVVQK
